From article PMC6751060 (mBio, 2019)

B2: RicA residues 1 to 122 (C-terminally truncated, for crystallography) (domain or fragment, B. subtilis, UniProt O31779 1-122, looked up)
chain: MTLYSKKDIVQQARNLAKMISETEEVDFFKRAEAQINENDKVSTIVNQIKALQKQAVNLKHYEKHEALKQVEAKIDALQEELEEIPVIQEFRDSQMEVNDLLQLVAHTISNQVTNEIITSTG
notes: also called truncated RicA; RicA (amino acids 1 to 122)

Columns and labels:
[1] = biological target: RicA of Bacillus anthracis (B. anthracis); assay: AUC
[2] = biological target: B2; assay: crystal structure; RicAF crystals; hanging drop, 18% PEG 500 MME, 8% MPD, 100 mM sodium nitrate, 100 mM MOPS, sodium HEPES pH 7.3; conditions: both partners purified
crystal structure = biological target: the molecule itself; assay: crystal structure
[3] = biological target: T1, RicF (YlbF) of Bacillus subtilis (B. subtilis, UniProt O34412 1-149); assay: pull-down; conditions: partners not purified
T1 construct: also called RicF^Bsu
T1 sequence (looked up): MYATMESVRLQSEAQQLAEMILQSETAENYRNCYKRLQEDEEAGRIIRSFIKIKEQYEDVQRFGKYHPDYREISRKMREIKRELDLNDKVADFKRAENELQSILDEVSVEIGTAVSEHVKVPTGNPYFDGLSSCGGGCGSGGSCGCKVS

[4] = biological target: the molecule itself; assay: SEC; […]; 20 mM Tris-HCl pH 8.0, 150 mM NaCl, 1 mM DTT

With “RicF of Bacillus anthracis (natural protein)” the stoichiometry N [1] was 1.

B1: RicF residues 1 to 121 (C-terminally truncated, for crystallography) (domain or fragment, B. subtilis, UniProt O34412 1-121, looked up)
chain: MYATMESVRLQSEAQQLAEMILQSETAENYRNCYKRLQEDEEAGRIIRSFIKIKEQYEDVQRFGKYHPDYREISRKMREIKRELDLNDKVADFKRAENELQSILDEVSVEIGTAVSEHVKV
notes: also called truncated RicF
B1: binds [2].

B2: binds (crystal structure).

B3: RicA (YmcA) of Bacillus subtilis (natural protein, B. subtilis, UniProt O31779 1-143, looked up)
chain: MTLYSKKDIVQQARNLAKMISETEEVDFFKRAEAQINENDKVSTIVNQIKALQKQAVNLKHYEKHEALKQVEAKIDALQEELEEIPVIQEFRDSQMEVNDLLQLVAHTISNQVTNEIITSTGGDLLKGETGSKVKHSNNSCSL
notes: also called RicA^Bsu
B3: binds [3].

B4: RicA (YmcA) of Bacillus subtilis, expressed alone and purified (natural protein, B. subtilis)
chain: MTLYSKKDIVQQARNLAKMISETEEVDFFKRAEAQINENDKVSTIVNQIKALQKQAVNLKHYEKHEALKQVEAKIDALQEELEEIPVIQEFRDSQMEVNDLLQLVAHTISNQVTNEIITSTGGDLLKGETGSKVKHSNNSCSL
notes: also called RicA dimer; GST-RicA
With B4 the “stoichiometry N” value [4] was 2.
